Laboratory results published in patent US20080227720A1 (MOREHOUSE SCHOOL OF MEDICINE, published 2008).

B1: Gp120 9 mer peptide spanning amino acids 315-324 (GRAFYTTKY) (peptide)
peptide: GRAFYTTKY
B2: Nef 10 mer peptide spanning the 50-60 motif (NAACAWLEAQ) (peptide)
peptide: NAACAWLEAQ

Molecular target: CXCR4 receptor (human, UniProt P61073 1-352)
Experiment: cell-based or functional assay

Sequence of CXCR4 receptor (P61073 whole entry): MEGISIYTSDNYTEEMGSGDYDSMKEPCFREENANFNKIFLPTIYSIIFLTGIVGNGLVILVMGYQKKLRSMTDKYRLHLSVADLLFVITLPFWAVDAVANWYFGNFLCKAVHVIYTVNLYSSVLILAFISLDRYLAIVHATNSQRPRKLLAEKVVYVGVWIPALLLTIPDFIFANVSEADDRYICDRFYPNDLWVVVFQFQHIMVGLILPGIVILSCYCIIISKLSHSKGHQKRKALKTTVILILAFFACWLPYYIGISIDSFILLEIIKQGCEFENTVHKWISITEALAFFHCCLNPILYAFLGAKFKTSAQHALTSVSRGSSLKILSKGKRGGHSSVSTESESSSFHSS

Binder	apoptosis relative to the full gp 120 protein at an equivalent molar ratio	apoptosis relative to the full Nef protein at an equivalent molar ratio
B1	~60 % of the apoptosis observed from the full gp 120 protein	–
B2	–	~100 % of the apoptosis observed for the full Nef protein
